# What was measured:
# Type in all cases: physicochemical
# [1] = target: T1, TACE (Homo sapiens, UniProt P78536, N452Q/S266A); assay: Stability of TACE (auto-proteolysis) on storage at 4 degrees Celsius, SDS-PAGE; conditions: TACE 15 mg/ml, seven days
# T1 construct: Only the catalytic domain was purified; GS linker + His6 (C); made in house; host or cells: Trichoplusia ni (High5) cells, baculovirus
# Method: Stability of TACE: The stability of TACE was examined under several buffer conditions at pH 7.5. Twenty microliter aliquots of TACE at 15 mg/ml were desalted over P-6 spin columns (BioRAD, Hercules, Calif.) that had been equilibrated in: • (a) 25 mM Tris, 0.15M NaCl; • (b) 25 mM Tris; or • (c) 25 mM Tris plus N-{D,L-2-(hydroxyaminocarbonyl)methyl-4-methylpentanoyl}-L-3-amino-2-dimethylbutanoyl-L-alanine, 2-(amino)ethyl amide.
# The stability of the TACE protein was evaluated after storage at 4 degrees Celsius for seven days. After incubating the TACE polypeptide under the three conditions listed above, Sodium Dodecyl Sulfate PolyAcrylamide Gel Electrophoresis (SDS-PAGE) was performed. […] Moreover, the sequencing data indicated the presence of a single cleavage site at 352Y-V353 of SEQ ID NO: 2.
# [2] = target: T1, TACE; assay: Stability of TACE and TACE mutants under different storage conditions, SDS-PAGE; conditions: 25 mM Tris pH 7.5, 4 degrees Celsius, 3 hours
# Method: (§1) Stability of TACE and TACE mutants: To test for stability under different storage conditions, 20 ul of TACE protein, at 15 mg/ml, was desalted over BIO-RAD P-6 columns equilibrated at pH 7.5 in: • (a) 25 mM Tris, 0.15M NaCl; • (b) 25 mM Tris+1 mM N-{D,L-2-(hydroxyaminocarbonyl)methyl-4-methylpentanoyl}-L-3-amino-2-dimethylbutanoyl-L-alanine, 2-(amino)ethyl amide; or • (c) 25 mM Tris.
# (§2) One microliter aliquots were analyzed by SDS-PAGE after storing them for 3 hours, or 17 days at 4 degrees Celsius. […] In direct contrast, all constructs were stable in either 0.15M NaCl, or 1 mM N-{D,L-2-(hydroxyaminocarbonyl)methyl-4-methylpentanoyl}-L-3-amino-2-dimethylbutanoyl-L-alanine, 2-(amino)ethyl amide.
# [3] = test system: TACE; assay: as above; conditions: 25 mM Tris pH 7.5, 4 degrees Celsius, 17 days
# Method: as §1, §2
Molecule,"SDS-PAGE bands after storage with inhibitor ([1]; 25 mM Tris pH 7.5, 1:1.5 molar ratio enzyme:inhibitor, 4 degrees Celsius)",Proteolysis by SDS-PAGE in the absence of salt [2],Proteolysis by SDS-PAGE in the absence of salt [3],"SDS-PAGE bands after storage without high salt or inhibitor ([1]; 25 mM Tris pH 7.5, 4 degrees Celsius)"
"CC(C)CC(CC(=O)NO)C(=O)N[C@H](C(=O)N[C@@H](C)C(=O)NCCN)C(C)(C)C (stereo partly drawn) [N-{D,L-2-(hydroxyaminocarbonyl)methyl-4-methylpentanoyl}-L-3-amino-2-dimethylbutanoyl-L-alanine, 2-(amino)ethyl amide, reference compound]",only a single band having a molecular weight of 30 Kd was observed,–,–,–
"TACE: native tumor necrosis factor-alpha converting enzyme catalytic domain (SEQ ID NO: 6), with GS linker and polyHis tag (protein, listed as Homo sapiens, GS linker and polyHis tag) RADPDPMKNTCKLLVVADHRFYRYMGRGEESTTTNYLIELIDRVDDIYRNTAWDNAGFKGYGIQIEQIRILKSPQEVKPGEKHYNMAKSYPNEEKDAWDVKMLLEQFSFDIAEEASKVCLAHLFTYQDFDMGTLGLAYVGSPRANSHGGVCPKAYYSPVGKKNIYLNSGLTSTKNYGKTILTKEADLVTTHELGHNFGAEHDPDGLAECAPNEDQGGKYVMYPIAVSGDHENNKMFSQCSKQSIYKTIESKAQECFQERSNKV",–,substantial proteolysis,completely proteolyzed,two additional fainter bands
"V353G: modified TACE catalytic domain, Val353 replaced with glycine (SEQ ID NO: 20) (protein, listed as Homo sapiens) RADPDPMKNTCKLLVVADHRFYRYMGRGEESTTTNYLIELIDRVDDIYRNTAWDNAGFKGYGIQIEQIRILKSPQEVKPGEKHYNMAKSYPNEEKDAWDVKMLLEQFSFDIAEEASKVCLAHLFTYQDFDMGTLGLAYGGSPRANSHGGVCPKAYYSPVGKKNIYLNSGLTSTKNYGKTILTKEADLVTTHELGHNFGAEHDPDGLAECAPNEDQGGKYVMYPIAVSGDHENNKMFSQCSKQSIYKTIESKAQECFQERSNKV",–,–,highly resistant to auto-proteolysis,–

# Reference: patent US7824897B2, “Modified tumor necrosis factor-alpha converting enzyme and methods of use thereof” (Schering Corp., priority 2002, dated 2010)
